Experimental data: paper PMC2172336 (The Journal of Cell Biology, 2004)
Numbering of substitutions follows the chain as printed. Names may count otherwise. Where two headings read alike, the source gives them in different places.

T1: GST-Dig1_(93-111) (S. cerevisiae, UniProt Q03063 93-111)
T1 chain (looked up): KKSLKRGRVPAPLNLSDSN

T2: GST-Dig1_(213-452) (S. cerevisiae, UniProt Q03063 213-452)
T2 sequence (looked up): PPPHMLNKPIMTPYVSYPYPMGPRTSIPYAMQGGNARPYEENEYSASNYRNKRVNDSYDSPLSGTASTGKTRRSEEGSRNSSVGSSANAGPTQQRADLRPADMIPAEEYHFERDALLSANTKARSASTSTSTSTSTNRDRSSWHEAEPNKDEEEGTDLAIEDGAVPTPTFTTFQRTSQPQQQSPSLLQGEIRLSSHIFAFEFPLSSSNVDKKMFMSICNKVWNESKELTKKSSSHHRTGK

T3: Kss1-GBD (wild-type Kss1 fused to the Gal4 DNA-binding domain) (S. cerevisiae, UniProt P14681 1-368)
T3 sequence (looked up): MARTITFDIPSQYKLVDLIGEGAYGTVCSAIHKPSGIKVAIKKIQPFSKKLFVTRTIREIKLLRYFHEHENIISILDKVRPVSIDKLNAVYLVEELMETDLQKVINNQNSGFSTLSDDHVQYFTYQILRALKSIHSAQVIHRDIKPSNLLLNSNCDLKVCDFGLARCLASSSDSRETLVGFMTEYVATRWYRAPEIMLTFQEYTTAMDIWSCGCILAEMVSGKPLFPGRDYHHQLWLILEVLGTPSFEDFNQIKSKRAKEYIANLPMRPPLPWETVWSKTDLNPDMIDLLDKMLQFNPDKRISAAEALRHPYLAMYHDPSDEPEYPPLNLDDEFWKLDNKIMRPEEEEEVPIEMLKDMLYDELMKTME

B1: Fus3 (wild type), in vitro translated, 35S-labelled (enzyme, S. cerevisiae, UniProt P16892 1-353, looked up)
chain: MPKRIVYNISSDFQLKSLLGEGAYGVVCSATHKPTGEIVAIKKIEPFDKPLFALRTLREIKILKHFKHENIITIFNIQRPDSFENFNEVYIIQELMQTDLHRVISTQMLSDDHIQYFIYQTLRAVKVLHGSNVIHRDLKPSNLLINSNCDLKVCDFGLARIIDESAADNSEPTGQQSGMTEYVATRWYRAPEVMLTSAKYSRAMDVWSCGCILAELFLRRPIFPGRDYRHQLLLIFGIIGTPHSDNDLRCIESPRAREYIKSLPMYPAAPLEKMFPRVNPKGIDLLQRMLVFDPAKRITAKEALEHPYLQTYHDPNDEPEGEPIPPSFFEFDHYKEALTTKDLKKLIWNEIFS
modifications: [35S]methionine label
B2: Fus3-7m2 (D317N), in vitro translated, 35S-labelled (enzyme, S. cerevisiae, UniProt P16892 1-353, looked up)
chain: B1 chain with D317N
modifications: [35S]methionine label
B3: GST-Dig2_(98-114) (domain or fragment, S. cerevisiae, UniProt Q03373 98-114, looked up)
chain: SLKRKRVPPALNFSDIQ
B4: GST-Ste5_(241-336) (domain or fragment, S. cerevisiae, UniProt P32917 241-336, looked up)
chain: PENDELKDILISDFLIHKIPDSELSITPQSRFPPYSPLLPPFGLSYTPVERQTIYSQAPSLNPNLILAAPPKERNQIPQKKSNYTFLHSPLGHRRI
B5: GST-Ste7_(1-98) (domain or fragment, S. cerevisiae, UniProt P06784 1-98, looked up)
chain: MFQRKTLQRRNLKGLNLNLHPDVGNNGQLQEKTETHQGQSRIEGHVMSNINAIQNNSNLFLRRGIKKKLTLDAFGDDQAISKPNTVVIQQPQNEPVLV
B6: Kss1 (wild type), in vitro translated, 35S-labelled (enzyme, S. cerevisiae, UniProt P14681 1-368, looked up)
chain: T3 sequence (looked up)
modifications: [35S]methionine label
B7: GST-Ste12_(298-473) (domain or fragment, S. cerevisiae, UniProt P13574 298-473, looked up)
chain: AKGRDEEDFPLDYFPVSVEYPTEENAFDPFPPQAFTPAAPSMPISYDNVNERDSMPVNSLLNRYPYQLSVAPTFPVPPSSSRQHFMTNRDFYSSNNNKEKLVSPSDPTSYMKYDEPVMDFDESRPNENCTNAKSHNSGQQTKQHQLYSNNFQQSYPNGMVPGYYPKMPYNPMGGDP
B8: Ste12-GAD (Ste12 fused to the Gal4 transcriptional activation domain) (natural protein, S. cerevisiae, UniProt P13574 1-688, looked up)
chain: MKVQITNSRTEEILKVQANNENDEVSKATPGEVEESLRLIGDLKFFLATAPVNWQENQIIRRYYLNSGQGFVSCVFWNNLYYITGTDIVKCCLYRMQKFGREVVQKKKFEEGIFSDLRNLKCGIDATLEQPKSEFLSFLFRNMCLKTQKKQKVFFWFSVAHDKLFADALERDLKRESLNQPSTTKPVNEPALSFSYDSSSDKPLYDQLLQHLDSRRPSSTTKSDNSPPKLESENFKDNELVTVTNQPLLGVGLMDDDAPESPSQINDFIPQKLIIEPNTLELNGLTEETPHDLPKNTAKGRDEEDFPLDYFPVSVEYPTEENAFDPFPPQAFTPAAPSMPISYDNVNERDSMPVNSLLNRYPYQLSVAPTFPVPPSSSRQHFMTNRDFYSSNNNKEKLVSPSDPTSYMKYDEPVMDFDESRPNENCTNAKSHNSGQQTKQHQLYSNNFQQSYPNGMVPGYYPKMPYNPMGGDPLLDQAFYGADDFFFPPEGCDNNMLYPQTATSWNVLPPQAMQPAPTYVGRPYTPNYRSTPGSAMFPYMQSSNSMQWNTAVSPYSSRAPSTTAKNYPPSTFYSQNINQYPRRRTVGMKSSQGNVPTGNKQSVGKSAKISKPLHIKTSAYQKQYKINLETKARPSAGDEDSAHPDKNKEISMPTPDSNTLVVQSEEGGAHSLEVDTNRRSDKNLPDAT
B9: full-length Dig1-GAD (natural protein, S. cerevisiae, UniProt Q03063 1-452, looked up)
chain: MAVSARLRTTAEDTSIAKSTQDPIGDTEISVANAKGSSDSNIKNSPGGNSVGQESELEHVPEEDDSGDKEADHEDSETATAKKRKAQPLKNPKKSLKRGRVPAPLNLSDSNTNTHGGNIKDGNLASSNSAHFPPVANQNVKSAPAQVTQHSKFQPRVQYLGKASSRQSIQVNNSSNSYGKPHMPSAGIMSAMNPYMPMNRYIMSPYYNPYGIPPPHMLNKPIMTPYVSYPYPMGPRTSIPYAMQGGNARPYEENEYSASNYRNKRVNDSYDSPLSGTASTGKTRRSEEGSRNSSVGSSANAGPTQQRADLRPADMIPAEEYHFERDALLSANTKARSASTSTSTSTSTNRDRSSWHEAEPNKDEEEGTDLAIEDGAVPTPTFTTFQRTSQPQQQSPSLLQGEIRLSSHIFAFEFPLSSSNVDKKMFMSICNKVWNESKELTKKSSSHHRTGK
B10: full-length Dig2-GAD (natural protein, S. cerevisiae, UniProt Q03373 1-323, looked up)
chain: MNKEEQEDPQQEQISTVQENDPRNLQQLGMLLVSPGLDEDRLSEKMISKIKKSRDIEKNQKLLISRLSQKEEDHSGKPPTITTSPAEKTVPFKSLNHSLKRKRVPPALNFSDIQASSHLHGSKSAPPNITRFPQHKNSLRVRYMGRMAPTNQDYHPSVANSYMTATYPYPYTGLPPVPCYPYSSTPTQTHAYEGYYSPMYPGPLYNNGIIPADYHAKRKKLAGRSPHLEDLTSRKRTFVSKHHNGDPIISKTDEDIECSVTKNSLSEGASLNDDADDDNDKERIIIGEISLYDDVFKFEVRDDKNDYMKACETIWTEWHNLKK

Experiments:
[1] = biological target: T1, GST-Dig1_(93-111); test: pull-down
[2] = biological target: B3; test: pull-down
[3] = biological target: B5; test: pull-down
[4] = biological target: B4; test: pull-down
[5] = biological target: T2, GST-Dig1_(213-452); test: pull-down
[6] = biological target: B1; test: pull-down
[7] = biological target: B1; test: pull-down; remark: listed apart in the source
[8] = biological target: B6; test: pull-down
[9] = biological target: B6; test: pull-down; remark: listed apart in the source
[10] = biological target: T3, Kss1-GBD (wild-type Kss1 fused to the …); test: two-hybrid

B1 was tested, and the “fold higher affinity than Kss1 for the same D-site” value [1] was about 17 fold, the “fold higher affinity than Kss1 for the same D-site” value [2] was about 17 fold and the “fold higher affinity than for the Dig1 D-site” value [2] was about 3 fold. The “percent of input bound” value [3] was 14 % of input, the “percent of input bound” value [4] was 12.6 % of input and the “percent of input bound” value [5] was 0.6 % of input.

For B2, the “percent of wild-type binding” value [3] was < 1 % of wild-type.

With B3 the Kd [6] was about 1000 nM.

Binder B4 has a Kd [7] of about 1000 nM and a Kd [8] of about 6.5 µM.

For B5, the Kd [7] was about 100 nM and the Kd [8] was about 0.1 µM.

With B6 the “fold higher affinity than for the Dig1 D-site” value [2] was about 3 fold, the “percent of input bound” value [3] was 9 % of input and the “percent of input bound” value [4] was 3.7 % of input. The “percent of input bound” value [5] was 1.3 % of input.

B7 showed a Kd [9] of about 2000 nM.

B8 was tested, and the “fold above background (two-hybrid reporter)” value (“fold above background” below) [10] was 4 fold.

B9 was tested, and the “fold above background” value [10] was 3 fold.

In the case of B10, the “fold above background” value [10] is reported as 23 fold.
